Assay [1] concerns the target smAKAP-wt-GFP (human) (UniProt Q9BSF0). As to the kind of experiment: FRET or BRET. On the technique in general: In BRET a luciferase serves as donor, and the signal depends on an acceptor being close.
Assay [2] has as its target PKA-RIβ (Homo sapiens) (UniProt P31321). As to the kind of experiment: fluorescence polarization. The settings on record: cited from earlier work. A general note: Polarisation of emitted light reports the rotation of a fluorescent probe.
Assay [3] deals with PKA-RIα (Homo sapiens) (UniProt P10644). As to the kind of experiment: fluorescence polarization. The settings on record: cited from earlier work.
Sequence of PKA-RIα (Homo sapiens) (P10644 whole entry): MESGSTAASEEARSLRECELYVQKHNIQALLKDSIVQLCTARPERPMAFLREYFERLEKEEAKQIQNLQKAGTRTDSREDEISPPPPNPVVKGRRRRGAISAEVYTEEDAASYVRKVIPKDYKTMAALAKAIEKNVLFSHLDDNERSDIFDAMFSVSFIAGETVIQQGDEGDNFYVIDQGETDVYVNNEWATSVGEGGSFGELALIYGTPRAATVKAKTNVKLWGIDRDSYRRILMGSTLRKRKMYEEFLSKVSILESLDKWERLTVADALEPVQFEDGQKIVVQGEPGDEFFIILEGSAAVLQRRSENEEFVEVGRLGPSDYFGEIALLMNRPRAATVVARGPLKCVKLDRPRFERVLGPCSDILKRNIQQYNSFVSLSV

Sequence of smAKAP (Q9BSF0 2-95): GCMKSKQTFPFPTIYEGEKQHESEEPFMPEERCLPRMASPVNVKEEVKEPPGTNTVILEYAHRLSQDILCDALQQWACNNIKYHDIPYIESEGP
Sequence of smAKAP-wt-GFP (human) (Q9BSF0 whole entry): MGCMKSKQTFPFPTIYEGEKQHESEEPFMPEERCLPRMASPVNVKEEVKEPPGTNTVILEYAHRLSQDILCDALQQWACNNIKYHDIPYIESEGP

As for “PKA-RIβ-mKO2 (from UniProt P31321 1-381) (natural protein)”, the change of FRET signal after forskolin in assay [1] is -2.3%.

Usually Kd stands for a measure of binding affinity in units of concentration. smAKAP (from UniProt Q9BSF0): the Kd was 6.9 nM in assay [2] and 6.7 nM in assay [3].

The record behind these values is article PMC4980077.
